Numbering of substitutions follows the chain as printed.
B1: CL-509930 (antibody, V domains shown)
VH: QVQLVESGGGVVQPGRSLRLSCAASGFTFSSYGMHWVRQAPGKGLEWVAIIWHDGSNKYYADSVKGRFTISRDNSKNTLYLQMNSLRAEDTAVYYCARDYSSFYFDYWGQGTLVTVSS
VL: not shown
modifications: peptides N-terminally acetylated and C-terminally amidated
B2: CL-462911 (antibody, V domains shown)
VH: QVHLVESGGGVVQPGRSLTLSCAASGFTFSSCGMHWVRQAPGKGLEWLAVIWYDGSNKYYADSVKGRFTISRDNSKNTLYLQMNSLRAEDTAVYYCARDGGYVRDYYYGMDVWGQGTTVTVSS
VL: not shown
modifications: peptides N-terminally acetylated and C-terminally amidated
B3: Ky315 (antibody, V domains shown)
VH: QVQLVESGGGVVQPGRSLRLSCAASGFTLSNYGVHWVRQAPGTGLEWVALIWYDGSNKFYADSVKGRFTISRDNSMDIVYLQMNNLRAEDTALYYCVRPGIAAAGSNYYAMDVWGQGTAVTVSS
VL: EIVMTQSPATLSMSPGERATLSCRASQSVGSDLAWFQQKPGQAPRLLIYGAFTRATGIPARFSGSGSGSEFTLTISSLQSEDFAVYYCQQYNRWWTFGQGTKVEMK
modifications: peptides N-terminally acetylated and C-terminally amidated
B4: CL-513083 (antibody, V domains shown)
VH: QVQLVESGGGVVQPGRSLRLSCAASGFTFSNYGMHWVRQAPGRGLEWVAIIWYDGSNKYYEDSVKGRFTISRDNSKNTLYLQMNSLRAEDTAVYYCARAQWLDQRHYHYTMDVWGQGTTVTVSS
VL: not shown
modifications: peptides N-terminally acetylated and C-terminally amidated
B5: CL-437899 (antibody, V domains shown)
VH: QEQLVESGGGVVQPGRSLRLSCEVSGFTFSNHGLHWVRQAPGKGLEWVAIIWYDGSNKFYAESVKGRFTISRDNSKNRMYLEMNSLRVEDSAVYYCVRAYSRSSSDYKYGMDVWGQGTTVTVSS
VL: DIQMTQSPSTLSASVGDRVIITCRASQSISSWLAWYQQRPGKAPELLIYKASSLETGVPSRFSGSGSGTEFTLTISSLQPDDFATYFCQQYSSYWTFGQGTKVEIK
modifications: peptides N-terminally acetylated and C-terminally amidated
B6: CL-511905 (antibody, V domains shown)
VH: QVQLVESGGGVVQPGRSLRLSCAASGFTFSGSGMHWVRQAPGRGLEWVAIIWYDGSHKYYVDSVQGRFIISRDNSKNTLYLEMNSLRVEDTAVYYCVRAYPSGSSNDKYGMDVWGQGTTVTVSS
VL: not shown
modifications: peptides N-terminally acetylated and C-terminally amidated
B7: CL-513094 (antibody, V domains shown)
VH: B6 VH with S85N
VL: not shown
modifications: peptides N-terminally acetylated and C-terminally amidated
B8: Ky224 (antibody, V domains shown)
VH: QVQLVESGGGVVQPGRSLRLSCAASGFTFSVYGMHWVRQAPGKGLEWVAVIWYDGSNKIYADSVKGRFTISRDNSKNTLYLQMDSLSAADTAVYYCAKIGSSSFDYWGQGTLVIVSS
VL: DIVMTQTPLSSPVTLGQPASISCRSSQSLVHSNGITYLSWLQQRPGQPPRLLLYEISNRFSGVPDRFSGSGTGTDFTLKISRVEAEDVGVYYCMQTTQFPITFGQGTRLEIK
modifications: peptides N-terminally acetylated and C-terminally amidated
B9: CL-508731 (antibody, V domains shown)
VH: QVQLVESGGGVVQPGRSLRLSCVASGFTFSNNGMHWVRQAPGKGLEWVAIIWHDGSNKFYAESVRGRFTISRDNSNNTLYLQMNSLRAEDTAVYYCARDRMFGSGSWNYFDPWGQGTLVTVSS
VL: EIVLTQSPATLSLSPGERATLSCRASQSISTYLAWYQQKPGQAPRLLIYDASNRATGIPARFSGSGSGTDFTLTISSLEPEDFAVYYCQQRSYWWTFGQGTKVEIK
modifications: peptides N-terminally acetylated and C-terminally amidated
B10: CL-509993 (antibody, V domains shown)
VH: B9 VH with H53Y, F59Y, E62D, R65K, S106T
VL: B9 VL with I29V, S30T, Y93N
modifications: peptides N-terminally acetylated and C-terminally amidated
B11: CL-512871 (antibody, V domains shown)
VH: QVLLVESGGGVVQPGRSLRLSCAASGFTFSNYGMHWVRQAPGKGLEWVALIRYDGINKFYADSVKGRFTISRDNSENTLYMQINSLRAEDTAMYYCAKAYNTSSDYYYGMDVWGQGTTVTVSS
VL: DIQMTQSPSTLSASVGDRVTITCRASQSISTWLAWYQQKPGKAPKLLIYKASRLESGVPSRFSGSGSGTEFTLTISSLQPDDLATYYCQQFNSYWTFGQGTKVEIR
modifications: peptides N-terminally acetylated and C-terminally amidated
B12: CL-510020 (antibody, V domains shown)
VH: QVQLVESGGGVVQPGRSLRLSCAASGFTFSSFGMYWVRQAPGKGLEWVALIWYDGSNQYYADSVKGRFTISRDNSKNTLYLQMNSLRAEDTAVYYCARAGYFYGSGSPLDYWGQGTLVTVPS
VL: B5 VL with R18G, I20T, R39K, E45K, K50M, T56S, F87Y, S92Y, S93N
modifications: peptides N-terminally acetylated and C-terminally amidated
B13: CL-510453 (antibody, V domains shown)
VH: QVQLVESGGGVVQPGRSLRLSCAASGFTFSSYGMHWVRQAPDKGLEWVAIIWYDGSKKYYADSVKGRFTVSRDNSKNTLYLQMNSLRAEDTAVFYCARSFDYESGGFYSFDYWGQGTLVSVSS
VL: B11 VL with T31S, K50R, R53S, E55A, L83F, F91Y, I105F, R106K
modifications: peptides N-terminally acetylated and C-terminally amidated
B14: CL-513279 (antibody, V domains shown)
VH: QVQLVESGGGVVQPGRSLRLSCAASGFTFSNFGMHWVRQAPVKGLEWVALIWYDGSNKFYADSVQGRFTISRDNSKNILYLQMNSLRAEDTAVYYCAKVEARGVDYHSYGMDVWGQGTTVTVSS
VL: B5 VL with I20T, R39K, E45Q, T56S, F87Y, S92K, S93Y
modifications: peptides N-terminally acetylated and C-terminally amidated
B15: CL-513809 (antibody, V domains shown)
VH: QVQLVESGGGVVQPGRSLRLSCAASGFIFSNYGMYWVRQTPDKGLEWVALIWYDGNNKFYSDSVKGRFTVSRDNSKNTLYLQMNSLRDEDTALYYCARAGYFYGSGSSLDKWGQGTLVTVSS
VL: B11 VL with T20S, T31I, R53S, L83F, F91Y, R106K
modifications: peptides N-terminally acetylated and C-terminally amidated
B16: CL-532151 (antibody, V domains shown)
VH: QVQLVESGGGVVQPGGSLRLSCAASGFTFSGSGMHWVRHAPGKGLEWVAIIWYDGSNKFYADSVKGRFTISRDNSRNTLYLQMNSLRAEDTAVYYCARAYVSGNYGDKYGMDVWGQGTTVTVSS
VL: B5 VL with I20T, S31N, Y36F, R39K, E45K, T56S, S76N, S92N, S93Y
modifications: peptides N-terminally acetylated and C-terminally amidated
B17: CL-449007 (antibody, V domains shown)
VH: QVQVVESGGGVVQPGRSLRLSCAASGFTFSNYGMHWVRQAPGKGLEWVAIIWYDGSHKFYANSVKGRFTISRDNSKNTLFLQMNSLRAEDTAVYYCARVGNGNSDWTDAFDIWGQGTMVTVSS
VL: B11 VL with S30N, T31S, R53S, L83F, F91Y, S93T, R106K
modifications: peptides N-terminally acetylated and C-terminally amidated
B18: CL-510418 (antibody, V domains shown)
VH: QVQLVESGGGVVQPGQSLRLSCEASGFTFSNYGMHWVRQAPVKGLEWVAIIWFDGSYKYYADSVKGRFTVSRDNSKNTLYLQMDSLRAEDTAVYYCARARKGQRSDYYGSETSYTFDNWGQGTLVTVSS
VL: B11 VL with S30N, T31S, L46F, R53I, V58I, L83F, F91Y, R106K
modifications: peptides N-terminally acetylated and C-terminally amidated
B19: Ky15.2 (antibody, V domains shown)
VH: QVLLVESGGGVVQPGTSLRLSCVASGFSFSTYGMHWVRQSPGKGLEWVAIIWYDGGNKFYADSVQGRFTVSRDNSKNTLYLQMNSLRAEDTAVYYCAKAYRTSLDKKYGMDVWGQGTTVTVSS
VL: B5 VL with I20T, S30A, R39K, E45K, T56S, Q79H, Y91F, S92T
modifications: peptides N-terminally acetylated and C-terminally amidated
B20: CL-449869 (antibody, V domains shown)
VH: QVQLVESGGGAVQPGRSLRLSCAASGFTFSYNGMHWVRQAPGKGLEWVAIIWYDGSNKFYADSVKGRFTISRDNSKDTLYLEMNSLRAEDTAIYYCARAWNYDDKKYSMDVWGQGTTVTVSS
VL: B11 VL with T31S, R53S, L83F, F91Y, S93Y, Y94F
modifications: peptides N-terminally acetylated and C-terminally amidated
B21: CL-438096 (antibody, V domains shown)
VH: QVVLVESGGGVVQPGRSLRLSCEASGFIFSSRGMHWVRQTPGKGLEWVAIIWYDGSNKFYADSVKGRFTISRDNSKNTLYLQMNSLRAEDTAVYYCARSYRTSLDKKYGMDVWGQGTTVTVSS
VL: B5 VL with I20T, R39K, E45K, T56S, Q79H, S92N
modifications: peptides N-terminally acetylated and C-terminally amidated
B22: CL-444469 (antibody, V domains shown)
VH: QVQLVESGGGVVQPGRSLRVSCEVSGLTFSNYGMHWVRQAPGKRLEWVAIIWYDGSNKYYADSVKGRFTISRDNSKNTLYLQMNSLRAEDTAVYYCARSYGSGSRGDYYGMDVWGQGTTVTVSS
VL: B5 VL with I20T, Y36F, R39K, E45K, T56S, F87Y, S92Y
modifications: peptides N-terminally acetylated and C-terminally amidated
B23: CL-444691 (antibody, V domains shown)
VH: QVQLVESGGGVVQPGRSLRLSCAASGFTFSNYGMHWVRQAPGKGLEWVAVIWYDGSNKFYADSVKGRFTISRDNSKNTLYLQMNSLRAEDTAVYYCARDGGYNKNSGSYGWFDPWGQGTLVTVSS
VL: B11 VL with I29V, R53S, L83F, F91Y, W95F, K102R, V103L, R106K
modifications: peptides N-terminally acetylated and C-terminally amidated
B24: CL-460406 (antibody, V domains shown)
VH: QIQLVESGGGVVQPGRSLRLSCAASGFTFSNSGMHWIRQAPGKGLEWVTIIWYDGSNKYYADSVKGRFTISRDNSKNTLYLQMNSLRAEDTAIYYCARAYSSSSDDYYGMDVWGQGTTVTVSS
VL: B11 VL with T31S, R53S, E70D, L83F, N92Y, S93N, R106T
modifications: peptides N-terminally acetylated and C-terminally amidated
B25: CL-514174 (antibody, V domains shown)
VH: B16 VH with G16R, A23V, H39Q, A40S, K65Q, R76K, A88V, A92G, V101L
VL: B5 VL with I20T, Y36F, R39K, E45K, T56S, S76N, S92N, S93Y
modifications: peptides N-terminally acetylated and C-terminally amidated
B26: CL-510373 (antibody, V domains shown)
VH: QVQLVESGGGVVQPGRSLKLSCAASGFTFSSYGMHWVRQAPGRGLEWVSIIWYDGSNKFYSDSVQGRFTISRDDSKNTLYLQMNSLRAEDTAMYYCAMVANYTISSGAFDIWGHGTMVTVSS
VL: B5 VL with I20T, S31N, R39K, P40S, E45K, T56S, S92K, S93T
modifications: peptides N-terminally acetylated and C-terminally amidated

Biological target: PfCSP full length (Plasmodium falciparum (isolate NF54), UniProt P19597)
Sequence (P19597 20-375): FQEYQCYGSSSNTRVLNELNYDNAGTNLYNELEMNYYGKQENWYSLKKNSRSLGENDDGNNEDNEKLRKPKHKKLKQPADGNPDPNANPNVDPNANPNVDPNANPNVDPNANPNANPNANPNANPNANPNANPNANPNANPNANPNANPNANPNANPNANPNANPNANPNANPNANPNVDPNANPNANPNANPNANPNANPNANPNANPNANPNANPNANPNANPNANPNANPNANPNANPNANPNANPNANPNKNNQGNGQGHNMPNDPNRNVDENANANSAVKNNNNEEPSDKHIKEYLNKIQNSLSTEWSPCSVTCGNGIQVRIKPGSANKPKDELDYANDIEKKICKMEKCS
Assay: ELISA AUC

Binder	binding score
B1	1.99
B2	1.4
B3	2.7
B4	2.24
B5	2.4
B6	2.61
B7	2.14
B8	2.2
B9	2.31
B10	2.15
B11	2.21
B12	2.45
B13	2.07
B14	2.06
B15	2.34
B16	2.53
B17	2.4
B18	2.46
B19	2.4
B20	2.2
B21	2.6
B22	2.4
B23	2.3
B24	2.3
B25	2.12
B26	2.37

Source: paper PMC10720262 (2023)
